Substitutions are numbered along the chain they refer to. Names and notes keep the numbering of the source. Values joined by “and” are separate entries in the source; they are usually repeats but may differ in a detail not shown here. Equal entries are not always repeated.
T1: recombinant human IL-12 (rhIL-12) (human, UniProt P29459 23-219; P29460 23-328)
T1 construct: disulfide-linked p35/p40 heterodimer (p70); also called IL-12 p70; rec. human IL12
T1 sequence (looked up) 1: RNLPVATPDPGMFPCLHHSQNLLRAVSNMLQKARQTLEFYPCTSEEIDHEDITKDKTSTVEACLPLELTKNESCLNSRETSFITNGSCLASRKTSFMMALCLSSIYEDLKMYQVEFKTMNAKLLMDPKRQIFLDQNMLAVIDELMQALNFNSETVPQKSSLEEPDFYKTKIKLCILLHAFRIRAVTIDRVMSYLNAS
T1 sequence (looked up) 2: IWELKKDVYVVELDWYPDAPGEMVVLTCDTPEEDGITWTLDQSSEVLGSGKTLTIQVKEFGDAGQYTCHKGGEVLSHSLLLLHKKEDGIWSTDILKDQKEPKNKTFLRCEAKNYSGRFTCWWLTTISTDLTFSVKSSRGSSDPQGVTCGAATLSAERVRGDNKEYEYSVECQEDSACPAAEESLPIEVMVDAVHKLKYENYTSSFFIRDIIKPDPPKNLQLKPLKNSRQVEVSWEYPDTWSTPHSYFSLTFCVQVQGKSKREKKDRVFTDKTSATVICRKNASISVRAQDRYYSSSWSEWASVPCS

T2: human IL-12 (human, UniProt P29459 23-219; P29460 23-328)
T2 construct: recombinant human IL-12 heterodimer (p35/p40, disulfide-linked); also called hIL-12; rhIL-12
T2 sequence (looked up) 1: T1 sequence (looked up) 1
T2 sequence (looked up) 2: T1 sequence (looked up) 2

T3: human interleukin 12 (p70 heterodimer of p35 and p40) (human, UniProt P29459 23-219; P29460 23-328)
T3 construct: Recombinant human IL-12; p35 and p40 linked by a disulfide bridge; also called hIL-12; IL-12
T3 sequence (looked up) 1: T1 sequence (looked up) 1
T3 sequence (looked up) 2: T1 sequence (looked up) 2

B1: Y61 IgG germline (antibody, V domains shown)
VH: QVQLVESGGGVVQPGRSLRLSCAASGFTFSSYGMHWVRQAPGKGLEWVAFIRYDGSNKYYADSVKGRFTISRDNSKNTLYLQMNSLRAEDTAVYYCKTHGSHDNWGQGTMVTVSS
VL: QSVLTQPPSVSGAPGQRVTISCSGSRSNIGSNTVKWYQQLPGTAPKLLIYGNDQRPSGVPDRFSGSKSGTSASLAITGLQAEDEADYYCQSYDRGTHPALLFGTGTKVTVL
B2: AO3 IgG germline (antibody, V domains shown)
VH: B1 VH
VL: B1 VL with A99L, L100T, L101M
notes: IgG with germline frameworks as named; only the CDR3s are tied to it
B3: 78-34 (scFv, V domains shown)
VH: B1 VH with E6Q, N84K, K97T, H99S, H102Y, N104Y
VL: SYVLTQPPSVSGTPGQRVTISCSGGRSNIGSNTVKWYQQLPGTAPKLLIYGNDQRPSGVPDRFSGSKSGTSASLAITGVQAEDEADYYCQSYDRGFTGSRVFGTGTKVTVL
notes: scFv
B4: 149-6 (scFv, V domains shown)
VH: B1 VH with E6Q, N84K, K97T
VL: SYVLTQPPSVSGTPGQRVTISCSGGRSNIVSNTVKWYQQLPGTAPKLLIYGNDQRPSGVPDRFSGSKSGTSASLAITGVQAEDEADYYCQSYDRGFTGSRVFGTGTKVTVLG
notes: scFv
B5: 79-1 (scFv, V domains shown)
VH: B1 VH with E6Q, N84K, K97T, H99S, H102Y, N104Y
VL: B3 VL with R94S, G95S, F96L, T97W
notes: scFv
B6: 103-4 (scFv, V domains shown)
VH: B1 VH with E6Q, N84K, K97T
VL: B3 VL with G30V, S99A
notes: scFv
B7: Y17 (scFv, V domains shown)
VH: B1 VH with E6Q, N84K
VL: B3 VL with F96S, T97A, G98P, S99M, R100I, V101N
notes: scFv
B8: 149-4 (scFv, V domains shown)
VH: B1 VH with E6Q, N84K, K97T, G106S
VL: B3 VL
notes: scFv
B9: 149-7 (scFv, V domains shown)
VH: B1 VH with E6Q, N84K, K97T
VL: B3 VL with G95D
notes: scFv
B10: 149-11 (scFv, V domains shown)
VH: B1 VH with E6Q, N84K, K97T, G106S
VL: B3 VL with R94N, S99A
notes: scFv
B11: 149-5 (scFv, V domains shown)
VH: B1 VH with E6Q, N84K, K97T, N104T
VL: B4 VL with V30G, R94S, G95S, F96L, T97W, S99T
notes: scFv
B12: 101-11 (scFv, V domains shown)
VH: B1 VH with E6Q, N84K, K97T
VL: B3 VL
notes: scFv
B13: 136-15 (scFv, V domains shown)
VH: B1 VH with E6Q, N84K
VL: B4 VL with G25S, V30G, S91T, R94K, R100S
notes: scFv
B14: 103-7 (scFv, V domains shown)
VH: B1 VH with E6Q, N84K, K97T, N104D
VL: B3 VL with G95D, S99T
notes: scFv
B15: 103-8 (scFv, V domains shown)
VH: B1 VH with E6Q, N84K
VL: B3 VL with S91T, R94K, R100S
notes: scFv
B16: 103-14 & 9 (scFv, V domains shown)
VH: B1 VH with E6Q, N84K
VL: B3 VL with R100M
notes: scFv
B17: 136-15 (scFv)
chain: QVQLVQSGGGVVQPGRSLRLSCAASGFTFSSYGMHWVRQAPGKGLEWVAFIRYDGSNKYYADSVKGRFTISRDNSKNTLYLQMKSLRAEDTAVYYCKTHGSHDNWGQGTMVTVSSSYVLTQPPSVSGTPGQRVTISCSGSRSNIGSNTVKWYQQLPGTAPKLLIYGNDQRPSGVPDRFSGSKSGTSASLAITGVQAEDEADYYCQTYDKGFTGSSVFGTGTKVTVLG
B18: 149-5 (scFv)
chain: B17 chain with K97T, N104T, S140G, T206S, K209S, G210S, F211L, T212W, S214T, S215R
B19: 149-6 (scFv)
chain: B17 chain with K97T, S140G, G145V, T206S, K209R, S215R
B20: Y61-L94Y (scFv, V domains shown)
VH: B1 VH with E6Q, N84K
VL: B1 VL with G95Y
B21: Y61-L30K (scFv, V domains shown)
VH: B1 VH with E6Q, N84K
VL: B1 VL with Q1S, S2Y, A13T, S25G, S31K, L79V
notes: copies: 1 + 1
B22: Y61-L30C (scFv, V domains shown)
VH: B1 VH with E6Q, N84K
VL: B1 VL with Q1S, S2Y, A13T, S25G, S31C, L79V
notes: copies: 1 + 1
B23: Y61-L30N (scFv, V domains shown)
VH: B1 VH with E6Q, N84K
VL: B1 VL with Q1S, S2Y, A13T, S25G, S31N, L79V
notes: copies: 1 + 1
B24: Y61-L30R (scFv, V domains shown)
VH: B1 VH with E6Q, N84K
VL: B1 VL with Q1S, S2Y, A13T, S25G, S31R, L79V
notes: copies: 1 + 1
B25: Y61-L30D (scFv, V domains shown)
VH: B1 VH with E6Q, N84K
VL: B1 VL with Q1S, S2Y, A13T, S25G, S31D, L79V
notes: copies: 1 + 1
B26: Y61-L30Y (scFv, V domains shown)
VH: B1 VH with E6Q, N84K
VL: B1 VL with Q1S, S2Y, A13T, S25G, S31Y, L79V
notes: copies: 1 + 1
B27: Y61-L94F (scFv, V domains shown)
VH: B1 VH with E6Q, N84K
VL: B1 VL with Q1S, S2Y, A13T, S25G, L79V, G95F
B28: Y61-L94N (scFv, V domains shown)
VH: B1 VH with E6Q, N84K
VL: B1 VL with Q1S, S2Y, A13T, S25G, L79V, G95N

biological target: T1, recombinant human IL-12 (rhIL-12); experiment: BIAcore SPR

koff [s⁻¹] | Binder
0.00015 | B1
0.00025 | B2

biological target: T2, human IL-12; experiment: RB assay: 125I-hIL-12 binding to PHA blasts
Experimental: (§1) PHA blast cells isolated as described above, were washed once and resuspended in binding buffer to a cell density of 2×10⁷ cells/ml. […] The cell pellet was examined for cell bound radioactivity using a gamma counter. […] Incubations were carried out in duplicate.

IC50 [nM] | Binder
200 | B3
0.6 | B4
200 | B5
0.086 | B6
0.45 | B7
0.08 | B8
0.9 | B9
0.2 | B10
0.12 | B11
2 | B12
0.1 | B13
0.14 | B14
0.06 | B15
0.04 | B16

biological target: T2, human IL-12; experiment: SPR (BIAcore), IL-12 chip
Source text: The system utilizes the optical properties of SPR to detect alterations in protein concentrations within a dextran biosensor matrix. Proteins are covalently bound to the dextran matrix at known concentrations. […] To determine the off rate (koff), on rate (kₒₙ), association rate (Ka) and dissociation rate (Kd) constants, BIAcore kinetic evaluation software (version 2.1) was used.

koff [s⁻¹] | Binder
0.0164 | B3
0.00273 | B4
0.00016 | B6
8.9e-05 | B7
0.00137 | B8
0.00113 | B9
0.0143 | B10
0.00102 | B11
0.0045 | B12
0.00074 | B13
0.00037 | B14
0.00033 | B15
0.00067 | B16

biological target: T1, recombinant human IL-12 (rhIL-12); experiment: cell-based or functional assay

PHA assay IC50 (M) p70:p40 1:0 [M] | PHA assay IC50 (M) p70:p40 1:20 [M] | PHA assay IC50 (M) p70:p40 1:50 [M] | Binder
2e-09 | 5e-09 | 4e-09 | B17
6.5e-09 | 7e-09 | 4e-09 | B18
9e-10 | 1e-09 | 1e-09 | B19

biological target: T1, recombinant human IL-12 (rhIL-12); experiment: receptor binding assay, 125I-hIL-12 on PHA blasts
Experimental: as §1

IC50 [nM] | Binder
0.016 | B1
0.035 | B2
0.02 | B20

biological target: T3, human interleukin 12 (p70 heterodimer …); experiment: BIAcore

koff [s⁻¹] | Binder
0.000346 | B21
0.000186 | B22
0.000166 | B23
0.000182 | B24
0.00022 | B25
0.000483 | B26

biological target: T1, recombinant human IL-12 (rhIL-12); experiment: cell-based or functional assay; remark: another data set of the same source

IFN gamma IC50 [pM] | PHA assay IC50 [pM] | Binder
160 | 130 | B1
– | 60 | B27
– | 175 | B2
– | 80 | B28
– | 20 | B20

biological target: T2, human IL-12; experiment: cell-based or functional assay

PHA assay IC50 | Binder
600 nM | B3
2 nM | B4
600 nM | B5
0.9 nM | B6
> 10 nM | B7
3 nM | B8
3 nM | B9
4 nM | B10
3 nM | B11
30 nM and 20 nM | B12
2 nM | B13
1 nM | B14
1.5 nM | B15
1.2 nM | B16

biological target: T3, human interleukin 12 (p70 heterodimer …); experiment: BIAcore; remark: another data set of the same source

koff [s⁻¹] | Binder
0.000236 | B27
0.000137 | B28
0.000131 | B20
